Assay results from patent US20170247441A1 (Hoffmann-La Roche, published 2017).

How the values were obtained:
[1] = molecular target: T1, ANG2 (R&D Systems, Cat#623-CF) (human, UniProt O15123 19-496); assay: cell-based or functional assay
T1 sequence: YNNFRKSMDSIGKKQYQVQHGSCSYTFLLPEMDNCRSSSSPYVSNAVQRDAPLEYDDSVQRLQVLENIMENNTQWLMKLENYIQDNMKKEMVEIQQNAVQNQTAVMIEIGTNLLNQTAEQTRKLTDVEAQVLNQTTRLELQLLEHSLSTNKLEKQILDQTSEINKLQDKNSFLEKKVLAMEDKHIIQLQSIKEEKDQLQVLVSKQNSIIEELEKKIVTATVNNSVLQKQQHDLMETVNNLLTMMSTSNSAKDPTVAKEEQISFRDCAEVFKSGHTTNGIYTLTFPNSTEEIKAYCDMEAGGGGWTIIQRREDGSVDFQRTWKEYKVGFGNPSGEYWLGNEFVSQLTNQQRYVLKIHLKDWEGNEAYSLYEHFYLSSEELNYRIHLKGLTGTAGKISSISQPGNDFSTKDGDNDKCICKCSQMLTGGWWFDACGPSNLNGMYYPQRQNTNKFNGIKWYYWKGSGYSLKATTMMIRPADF

[2] = molecular target: T2, human ANG2-RBD-Fc-region fusion (human, UniProt O15123 275-496, limits assumed); assay: SPR, human ANG2-RBD-Fc captured, 1:1 model
T2 construct: not shown: Fc-region
T2 sequence: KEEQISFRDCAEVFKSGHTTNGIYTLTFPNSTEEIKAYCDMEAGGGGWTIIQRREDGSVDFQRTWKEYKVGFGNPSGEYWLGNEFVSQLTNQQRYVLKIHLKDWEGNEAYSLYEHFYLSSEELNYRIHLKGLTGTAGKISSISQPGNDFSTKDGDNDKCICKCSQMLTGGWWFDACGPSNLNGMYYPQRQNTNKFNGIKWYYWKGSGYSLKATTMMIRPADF

[3] = molecular target: T2, human ANG2-RBD-Fc-region fusion; assay: SPR, human ANG2-RBD-Fc captured, 1:1 model; remark: listed apart in the source
[4] = molecular target: T3, cynomolgus ANG2-RBD-Fc-region fusion (cynomolgus); assay: SPR, cynomolgus ANG2-RBD-Fc captured, 1:1 model
T3 construct: domain: RBD
Procedure: HBS-N (10 mM HEPES, 150 mM NaCl pH 7.4, GE Healthcare) was used as running buffer during the immobilization procedure. For the following kinetic characterization, sample and running buffer was HBS-P (10 mM HEPES, 150 mM NaCl pH 7.4, 0.05% Surfactant P20; GE Healthcare). The flow cell was set to 25° C.—and the sample block was set to 12° C.—and primed with running buffer twice prior to kinetic characterization.
Association was measured by injection of the Cross-Fabs in various concentrations in solution for 90 sec. at a flow rate of 90 μl/min starting with 300 nM in serial 1:3 dilutions. The dissociation phase was monitored for up to 600 sec. and triggered by switching from the sample solution to running buffer. All surfaces were regenerated by 60 sec. washing with a 3 M MgCl₂ solution at a flow rate of 5 μl/min. Bulk refractive index differences were corrected by subtracting the response obtained from an anti-human IgG antibody (Fc) surface. Blank injections were also subtracted (=double referencing). For calculation of KD and other kinetic parameters the Langmuir 1:1 model was used.

[5] = molecular target: T2, human ANG2-RBD-Fc-region fusion; assay: SPR, human ANG2; bivalent CrossMab, avidity
[6] = molecular target: T2, human ANG2-RBD-Fc-region fusion; assay: SPR, human ANG2; bivalent CrossMab, avidity; remark: listed apart in the source

Binder	relative biological activity [%] [1] [%]	koff [2] [s⁻¹]	kon [2] [M⁻¹ s⁻¹]	t½ [2] [min]	koff [3] [s⁻¹]	kon [3] [M⁻¹ s⁻¹]	t1/2 [3] [min]	Kd [4] [nM]	koff [4] [s⁻¹]	kon [4] [M⁻¹ s⁻¹]	t½ [4] [min]	koff [5] [s⁻¹]	kon [5] [M⁻¹ s⁻¹]	koff [6] [s⁻¹]	kon [6] [M⁻¹ s⁻¹]	t1/2 (S) [6] [min]
XAng2-0041 (Fab, CrossFab CL-CH1, valency 1; differences VH: S100dP, G100jA, T28N, T30A; VL: wt) heavy: not shown light: SYVLTQPPSVSVAPGQTARITCGGNNIGSKSVHWYQQKPGQAPVLVVYDDSDRPSGIPERFSGSNSGNTATLTISRVEAGDEADYYCQVWDSSSDHWVFGGGTKLTVLSSASTKGPSVFPLAPSSKSTSGGTAALGCLVKDYFPEPVTVSWNSGALTSGVHTFPAVLQSSGLYSLSSVVTVPSSSLGTQTYICNVNHKPSNTKVDKKVEPKSC	838	0.00317	3.85e+06	3.65	0.00317	3.85e+06	3.65	2	0.0036	2.14e+06	3.22	–	–	–	–	–
XAng2-0075 (Fab, CrossFab CL-CH1, valency 1; differences VH: S100dP, G100jA, T28N, T30A, D100bS; VL: D50T) heavy: not shown light: SYVLTQPPSVSVAPGQTARITCGGNNIGSKSVHWYQQKPGQAPVLVVYDTSDRPSGIPERFSGSNSGNTATLTISRVEAGDEADYYCQVWDSSSDHWVFGGGTKLTVLSSASTKGPSVFPLAPSSKSTSGGTAALGCLVKDYFPEPVTVSWNSGALTSGVHTFPAVLQSSGLYSLSSVVTVPSSSLGTQTYICNVNHKPSNTKVDKKVEPKSC	128	0.031	2.22e+06	0.367	0.031	2.22e+06	0.367	24	0.0325	1.34e+06	0.35	–	–	–	–	–
XAng2-0090 (Fab, CrossFab CL-CH1, valency 1; differences VH: S100dP, G100jA, T28N, T30A; VL: D50T) heavy: not shown light: SYVLTQPPSVSVAPGQTARITCGGNNIGSKSVHWYQQKPGQAPVLVVYDTSDRPSGIPERFSGSNSGNTATLTISRVEAGDEADYYCQVWDSSSDHWVFGGGTKLTVLSSASTKGPSVFPLAPSSKSTSGGTAALGCLVKDYFPEPVTVSWNSGALTSGVHTFPAVLQSSGLYSLSSVVTVPSSSLGTQTYICNVNHKPSNTKVDKKVEPKSC	706	0.00253	2.16e+06	4.57	0.00253	2.16e+06	4.57	2	0.00308	2.02e+06	3.75	–	–	–	–	–
XAng2-0099 (antibody, CrossMab CL-CH1, valency for ANG2 2; differences VH: S100dP, G100jA, T28N, T30A; VL: wt) heavy: not shown light: SYVLTQPPSVSVAPGQTARITCGGNNIGSKSVHWYQQKPGQAPVLVVYDDSDRPSGIPERFSGSNSGNTATLTISRVEAGDEADYYCQVWDSSSDHWVFGGGTKLTVLSSASTKGPSVFPLAPSSKSTSGGTAALGCLVKDYFPEPVTVSWNSGALTSGVHTFPAVLQSSGLYSLSSVVTVPSSSLGTQTYICNVNHKPSNTKVDKKVEPKSC	–	–	–	–	–	–	–	–	–	–	–	0.00011	2.61e+07	0.00011	2.61e+07	105
XAng2-0100 (antibody, CrossMab CL-CH1, valency for ANG2 2; differences VH: S100dP, G100jA, T28N, T30A; VL: D50T) heavy: not shown light: SYVLTQPPSVSVAPGQTARITCGGNNIGSKSVHWYQQKPGQAPVLVVYDTSDRPSGIPERFSGSNSGNTATLTISRVEAGDEADYYCQVWDSSSDHWVFGGGTKLTVLSSASTKGPSVFPLAPSSKSTSGGTAALGCLVKDYFPEPVTVSWNSGALTSGVHTFPAVLQSSGLYSLSSVVTVPSSSLGTQTYICNVNHKPSNTKVDKKVEPKSC	–	–	–	–	–	–	–	–	–	–	–	0.000167	2.06e+07	0.000167	2.06e+07	69.3
XAng2-0101 (antibody, CrossMab CL-CH1, valency for ANG2 2; differences VH: S100dP, G100jA, T28N, T30A, D100bE; VL: D50T) heavy: not shown light: SYVLTQPPSVSVAPGQTARITCGGNNIGSKSVHWYQQKPGQAPVLVVYDTSDRPSGIPERFSGSNSGNTATLTISRVEAGDEADYYCQVWDSSSDHWVFGGGTKLTVLSSASTKGPSVFPLAPSSKSTSGGTAALGCLVKDYFPEPVTVSWNSGALTSGVHTFPAVLQSSGLYSLSSVVTVPSSSLGTQTYICNVNHKPSNTKVDKKVEPKSC	–	–	–	–	–	–	–	–	–	–	–	0.00012	1.83e+07	0.00012	1.83e+07	96.2
